Entries after “also recorded” stand apart in the source; their conditions may differ.
Assays:
granzyme B = biological target: T1, granzyme B (Homo sapiens, UniProt P10144); test: In vitro cleavage of substrates by purified granzyme B, kcat/Km from densitometry; type: biochemical; conditions: in the presence of 10 μg/ml DNA
T1 construct: Some of these preparations were used for the further purification of granzyme B (Tschopp, 1994); endogenous in cells; host or cells: YT cells (human NK cell line), cytoplasmic granules
T1 sequence (P10144 21-247): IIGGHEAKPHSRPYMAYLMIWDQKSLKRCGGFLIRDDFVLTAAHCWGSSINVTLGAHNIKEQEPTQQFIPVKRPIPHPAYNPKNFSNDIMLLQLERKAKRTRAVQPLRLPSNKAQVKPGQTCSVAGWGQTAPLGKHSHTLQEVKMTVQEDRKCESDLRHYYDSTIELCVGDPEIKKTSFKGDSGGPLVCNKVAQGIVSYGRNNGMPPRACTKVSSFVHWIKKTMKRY
Method: cDNAs for caspase-3, caspase-7, NuMA and PARP were used to drive the synthesis of [^35S]methionine-labeled proteins by coupled transcription/translation in rabbit reticulocyte lysates. For all purified substrates, cleavage reactions were performed in buffer consisting of 50 mM Hepes pH 7.4, 10% sucrose and 5 mM DTT in the presence of the granzyme B concentrations indicated in FIG. 1. After incubation at 37° C. for 15 min, reactions were terminated and samples were electrophoresed on 10% (DNA-PKcs, NuMA), 12% (PARP) or 15% (caspases 3 and 7) SDS-polyacrylamide gels. Radiolabeled proteins and their fragments were visualized by fluorography. Intact and cleaved DNA-PKcs were visualized by immunoblotting with monoclonal antibody 18-2 (Casciola-Rosen et al., 1995).
Catalytic constant (kcat/km) values were calculated essentially as described (Casciola-Rosen et al., 1996). Briefly, subsaturating substrate concentrations were used in each in vitro reaction, and product appearance was assumed to be a first order process. […] Several appropriate densitometry systems are available, e.g. PDI Discovery System, with Quantity One Software, Protein Databases, Inc., (Huntington Station, N.Y.). kcat/Km values were calculated by fitting the dose-response data to the first order rate equation: percent substrate cleavage=100*((1^-e-((kcat*[E]/Km)*time)). […]

SP1 [1] = test: DNA-PKcs kinase assay (SP1 phosphorylation); type: biochemical; conditions: 12.5 nM granzyme B, 13.5 min, 37° C., then DNA, ATP
Method: Kinase assays were performed on intact DNA-PKcs or DNA-PKcs that had first been cleaved by granzyme B as follows. Reaction mixtures containing 10 mM Hepes pH 7.4, 2 mM MgCl2, 10 mM KCl, 2.7 mM DTT, and 50 ng DNA-PKcs in the absence or presence of 12.5 nM purified granzyme B, were incubated for 13.5 min at 37° C. Kinase reactions were subsequently initiated by adding 100 ng SP1 and 150 μM ATP containing 1.5 μCi [^32P]-ATP (3000 Ci/mmol), in the absence or presence of 10 μg/ml sheared herring sperm DNA (Promega). Samples were incubated at 37° C. for 10 min (well within the linear range of the assay, data not shown), before terminating the reactions by adding SDS gel buffer and boiling. After electrophoresing the samples on 8% SDS-PAGE, SP1 phosphorylation was detected by autoradiography, and quantitated by densitometry. Cleaved status of the kinase was confirmed in parallel by immunoblotting.

SP1 [2] = conditions: Casciola-Rosen et al., 1996; cited from earlier work

In the case of “DNA-dependent protein kinase catalytic subunit [DNA-PKCS]”, the “decrease of DNA-PKcs cleavage by granzyme B” value (granzyme B) is listed as “approximately 90%”, the “kinase activity of DNA-PKcs after cleavage by granzyme B” value (SP1 [1]) is listed as “entirely abolished; also recorded: completely abrogates” and the “kinase activity of DNA-PKcs after caspase-3 cleavage” value (SP1 [2]) is listed as “approximately 60 % of control levels”.

— patent publication US6855515B1, “Autoantigenic fragments, methods and assays” (Merck & Co., Inc., priority 1998, dated 2005)
